Data: article PMC4564306

How the values were obtained:
LexA-Rab10 Q68L (mouse) = LexA-Rab10 Q68L (mouse) (UniProt P61027); assay: two-hybrid
[1] = molecular target: LexA-Rab10 wild-type (mouse) (UniProt P61027); assay: two-hybrid

3-aminotriazole concentration that suppresses growth (LexA-Rab10 Q68L (mouse)) [mM] | 3-aminotriazole concentration that suppresses growth [1] [mM] | Molecule
1 |  | GAD-Exoc6 CT (from UniProt Q8TAG9-1 384-797) (domain or fragment)
50 | 1 to 5 | GAD-Exoc6b CT (domain or fragment) SDPNLVLDLKNLIVLFADTLQVYGFPVNQLFDMLLEIRDQYSETLLKKWAGIFRNILDSDNYSPIPVTSEEMYKKVVGQFPFQDIELEKQPFPKKFPFSEFVPKVYNQIKEFIYACLKFSEDLHLSSTEVDDMIRKSTNLLLTRTLSNSLQNVIKRKNIGLTELVQIIINTTHLEKSCKYLEEFITNITNVLPETVHTTKLYGTTTFKDARHAAEEEIYTNLNQKIDQFLQLADYDWMTGDLGNKASDYLVDLIAFLRSTFAVFTHLPGKVAQTACMSACKHLATSLMQLLLEAEVRQLTLGALQQFNLDVRECEQFARSGPVPGFQEDTLQLAFIDLRQLLDLFIQWDWSTYLADYGQPNCKYLRVNPVTALTLLEKMKDTSRKNNMFAQFRKNERDKQKLIDTVAKQLRGLI
